Laboratory results published in paper PMC8764538.

Tested on: T1, LuxT-6xHis (Vibrio harveyi BB120 (ATCC BAA-1116; reclassified Vibrio campbellii BB120)?), ORF:7f3e8717
T1 sequence: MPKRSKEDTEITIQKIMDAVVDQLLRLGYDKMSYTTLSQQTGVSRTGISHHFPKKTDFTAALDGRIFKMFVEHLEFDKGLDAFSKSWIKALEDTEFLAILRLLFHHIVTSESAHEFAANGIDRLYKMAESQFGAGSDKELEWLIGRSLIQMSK
Assay: EMSA
Details: EMSA: 20 nM DNA probe, LuxT-6xHis dimer 20-320 nM (1x-16x); buffer, salt, pH and temperature not given (described in cited ref 18)

Sequence | binding
GTTTGATCTGCTTAATAAATCTGGTTAAAAGTTATTAATTAACTTTAAAAAAATAACCCAAGATACTAGTGTTTTTTCAAATTCAAAGGAGAAGCTCTTGATATGGA (double strand) [PluxC control probe] | no binding
TGGCATATTTTAAGCTCTTCTCTTTGTAAATCCATCTAACTCACATTTAAATGAGGCCAGAATGAAATCATCCTCAGCATTATGTATTGTATGTCCTTG (double strand) [PluxT promoter probe] | binds
AATCATCAGTTCAATAAAAAAGAGGGCTTCAGCCCTCTTTTTTTATATATTTAATCTTGCCCTCATAATCAGTACGCTGTATTATCAATTACAACCGAACTACGTACTGTTTA (double strand) [PswrZ promoter probe] | binds
